Patent US5462743A, “Substance transfer system for topical application” (Medipro Sciences Limited, priority 1993, dated 1995)
Values joined by “and” are separate entries in the source; they are usually repeats but may differ in a detail not shown here. Equal entries are not always repeated. Blank lines part the entries; values can stand above or below the compound they belong to.

Assays:
[1] = In vitro permeation through intact skin, patch of FIGS. 14 and 15 (Example 6); type: in vitro ADME, Hairless Guinea Pig
Protocol: (§1) The wells were filled with porous plastic.
In addition to the transdermal patches using porous plastic depots as described in Example 5, patches containing fibrous depots were also tested. The fibrous depots, also measured 3 mm in length were cut from an aligned bonded cellulose acetate rod, 3 mm in diameter (R14236 from American Filtrona Co.).

[2] = In vitro skin permeation, patch of FIGS. 14 and 15, dried drug matrix (Example 7); type: in vitro ADME, Hairless Guinea Pig; settings: freeze dried depots, porous plastic matrix
Excerpt: as §1
The drug depots were hydrated with a suitable solubilizing solution just before the start of the permeation study, as illustrated in FIG. 6.

[3] = In vitro skin permeation, patch of FIGS. 14 and 15, liquid reservoir (Example 5); type: in vitro ADME, Hairless Guinea Pig; settings: porous plastic depots, contact area 1.1 cm^2
[4] = In vitro skin permeation, patch of FIG. 3 (Example 4); type: in vitro ADME, Hairless Guinea Pig; settings: porous plastic depots
Excerpt: […] […] Duplicate samples of each test compound were run.
skin compatible adhesive, H-566 coated onto a white polyethylene closed cell foam, 0.8 mm thick (Dermaflex PEF 32-W H-566 from Flexcon Company, Inc.) was used, perforated with an array of 69 cylindrical channels approximately 0.84 mm in diameter;
the channels were not lined; instead they were filled with cylindrical sections of porous plastic material (Hydrophilic HDPE with medium pore size, NO. X-4899, Porex Technologies);
the silicone sealant was absent; a reservoir support layer consisting of 1.6 mm thick sheet of porous plastic material, 2.0 cm in diameter (Hydrophilic HDPE with coarse pore size, NO. X-4916, Porex Technologies) was placed directly above the array of 69 channels;
Some variability in results, as between attempted duplicates, was observed, largely attributable to uncertain intimate contact between the reservoir and the skin contacting matrices.

[5] = In vitro skin permeation, patch of FIG. 2 (Example 1); settings: compromised skin, 37° C, contact area 0.21 cm^2, about 1 mg loaded, less than ideal intimate contact
Excerpt: (§2) The skin penetration of model compounds from a transdermal patch constructed according to FIG. 2 was established in vitro by a permeation study. […] The array measured 1.7×1.7 cm and was centrally located. […] On this outer surface of the adhesive layer, but between the slightly protruding silicone tubing was cast a 30% solution of silicone sealant in hexane. The channels were filled with filaments of open cell polyurethane foam. On top of the dry silicone layer was placed a reservoir support layer consisting of a 1.5 mm thick sheet of the same open-cell polyurethane foam, 2.0 cm in diameter. The outer, barrier layer of the patch was a 3.5 cm diameter section of DERMAFLEX V-300-F FLESH (vinyl coated with a medical grade acrylic adhesive, FLEXCON Company). The reservoir and channels of the patch were loaded with a solution which contained a fluorescently labelled model compound (polypeptides or polysaccharide). […] The sections of modified skin (stratum corneum removed) were excised from the Hairless Guinea Pig and mounted on the diffusion cell above a solution of isotonic saline such that the dermal side of skin was in contact with the magnetically stirred receptor liquid. The device was brought into intimate contact with the epidermal surface of the skin. The effective contact area of the solution with the skin through the channels was 0.21 cm^2. […]

[6] = in the bloodstream; cited from earlier work
[7] = in vivo; cited from earlier work
[8] = In vitro skin permeation, patch of FIG. 2 with H566 adhesive (Example 2); settings: compromised skin, approximately 1 mg loaded, intimate contact maintained
Excerpt: as §2

cancerous body cells = settings: subsequently converted into protoporphyrin IX; cited from earlier work

Amount Permeated (Cumulative) ([1]; fibrous matrix, 8 hrs): 0.19 Micrograms and 0.34 Micrograms | Amount Permeated (Cumulative) ([1]; fibrous matrix, 24 hrs): 1.74 Micrograms and 2.93 Micrograms | Amount Permeated (Cumulative) ([1]; fibrous matrix, 48 hrs): 2.99 Micrograms and 4.83 Micrograms | Amount Permeated (Cumulative) ([1]; porous plastic matrix, 8 hrs): 1.01 Micrograms and 1.03 Micrograms | Amount Permeated (Cumulative) ([1]; porous plastic matrix, 24 hrs): 6.14 Micrograms and 6.87 Micrograms | Amount Permeated (Cumulative) ([1]; porous plastic matrix, 48 hrs): 9.90 Micrograms and 10.69 Micrograms
Compound: C[C@]12CC[C@@H]3c4ccc(O)cc4CC[C@H]3[C@@H]1CC[C@@H]2O [Estradiol, estradiol]

Compound: Cytochrome C: carbon-14 labelled model compound, polypeptide, 12,300, from horse heart
Amount Permeated (Cumulative) ([2]; 4 hrs): 40.4 Micrograms | Amount Permeated (Cumulative) ([2]; 8 hrs): 124.2 Micrograms and 119.9 Micrograms | Amount Permeated (Cumulative) ([2]; 24 hrs): 412.6 Micrograms and 363.1 Micrograms | Amount Permeated (Cumulative) ([2]; 48 hrs): 642.7 Micrograms and 560.6 Micrograms | Amount Permeated (Cumulated) ([3]; 4 hrs): 117.8 micrograms and 103.4 micrograms | Amount Permeated (Cumulated) ([3]; 8 hrs): 257.5 micrograms and 239.8 micrograms | Amount Permeated (Cumulated) ([3]; 24 hrs): 581.6 micrograms and 572.6 micrograms | Amount Permeated (Cumulated) ([3]; 48 hrs): 740.0 micrograms and 728.3 micrograms

Compound: Casein
Amount Permeated in 20 Hrs. [4]: 75.98 Micrograms and 104.98 Micrograms | Amount Permeated in 20 Hrs. [5]: 0.05 Micrograms and 0.03 Micrograms

Compound: human growth hormone: polypeptide drug, human growth hormone (22,000 daltons)
half-life [6]: less than 25 minutes

Compound: parathyroid hormone: polypeptide drug, parathyroid hormone (9,500 daltons)
half-life [6]: less than 15 minutes

Compound: Hyaluronic acid [HA]
accumulation in HA-depleted areas [7]: preferentially accumulates in these depleted areas

Compound: Insulin
Amount Permeated in 20 Hrs. [4]: 41.96 Micrograms and 22.78 Micrograms | Amount Permeated in 20 Hrs. [8]: 10.85 Micrograms and 8.30 Micrograms | Amount Permeated in 20 Hrs. [5]: 0.04 Micrograms and 0.05 Micrograms

Compound: NCC(=O)CCC(=O)O [5-aminolevulinic acid]
absorption by cancerous body cells (cancerous body cells): preferentially absorbed by cancerous body cells
